B1: 5D2: mouse IgG2b kappa monoclonal antibody that specifically binds FTC; heavy chain SEQ ID NO: 1, light chain SEQ ID NO: 2 (antibody, listed as Mus musculus)
heavy: QVQLQQPGAELVKPGASVKVSCKASGYTFTSYWMHWVKQRPGQGLEWIGRIHLSDSDTNYNQNFKDKATLTVDKSSRTAHMHLSSLTSADSAVYYCAMGGTFQSNYDTYWGQGTLVTVSAAKTTPPSVYPLAPGCGDTTGSSVTLGCLVKGYFPESVTVTWNSGSLSSSVHTFPALLQSGLYTMSSSVTVPSSTWPSQTVTCSVAHPASSTTVDKKLEPSGPISTINPCPPCKECHKCPAPNLEGGPSVFIFPPNIKDVLMISLTPKVTCVVVDVSEDDPDVRISWFVNNVEVHTAQTQTHREDYNSTIRVVSALPIQHQDWMSGKEFKCKVNNKDLPSPIERTISKIKGLVRAPQVYILPPPAEQLSRKDVSLTCLVVGFNPGDISVEWTSNGHTEENYKDTAPVLDSDGSYFIYSKLDIKTSKWEKTDSFSCNVRHEGLKNYYLKKTISRSPGK
light: DIQMTQSPASLSASVGETVTITCRASGNIHNYLAWYQQKQGKSPQLLVYNAKTLTDGVPSRFSGSGSGTQYSLKINSLQPEDFGNYYCQHFLYTPYTFGGGTKLEMRRADAAPTVSIFPPSSEQLTSGGASVVCFLNNFYPKDINVKWKIDGSERQNGVLNSWTDQDSKDSTYSMSSTLTLTKDEYERHNSYTCEATHKTSTSPIVKSFNRNEC

Assays:
[1] = cited from earlier work
[2] = FTC screening assay: EIA on FTC-peptide coated plates with competition by free FTC; type: binding; details: supernatant incubated with free FTC
Protocol: (§1) An assay was developed to screen the Mabs for reactivity to the FTC conjugates. Microtiter plates were coated with the following reagents: FTC-peptide-dextran, FTC-peptide, FTC-peptide-LPH, FTC-peptide-BSA, FTC heptanoic acid, peptide only, peptide-LPH, peptide-BSA, BSA, LPH, and normal mouse serum (NMS). All compounds were diluted into sodium bicarbonate buffer, pH 9.6, to a concentration of 5 ug/ml; NMS was diluted 1:15. One hundred microliters of each solution was added to a column of the microtiter plate such that each row of the plate allowed the testing of a single clonal supernatant against all of the compounds in a single run. Plates were incubated at 4° C. overnight and then washed 3× with phosphate-buffered saline (PBS) containing 0.05% Tween 20 (PBS-T). Plates were blocked with PBS containing 0.5% nonfat dry milk for 1 hour at 37° C., washed 3×, and dried at 37° C. for 30 minutes. […]
(§2) Clonal supernatants (100 ul) were added to the appropriate wells and incubated at 37° C. for 1 hr. […] Absorbance was measured at 450 nm with a 630 nm reference.
(§3) Persistently reactive clones were further tested using FTC-peptide coated plates. […] Antibodies that yielded a reduction in absorbance versus the sample containing no FTC were selected for optimization in a FTC detection assay.

[3] = Cross-reactivity test of monoclonal antibody 5D2: related compounds; type: binding; details: Lamivudine (3TC), FTC-Triphosphate, FTC-Diphosphate, Cytidine, Deoxycytidine, Deoxyuridine, Guanosine, Deoxyguanosine, Deoxyadenosine, Adenosine, Thymidine, Uridine, 5-Methyluridine
Protocol: (§4) The monoclonal antibody 5D2 was tested for cross-reactivity. 5D2 was determined to be specific for FTC, and to not bind to the following compounds: […]

[4] = test system: carrier proteins (LPH, BSA); experiment: FTC screening assay: EIA on plates coated with carrier proteins; type: binding; details: plates coated at 5 ug/ml
Protocol: as §1, §2, §3

[5] = Cross-reactivity test of monoclonal antibody 5D2: FTC; type: binding
Protocol: as §4

[6] = Competitive indirect EIA, reactivity of 5D2 to naturally occurring structural analogs; type: binding; details: cytidine, cysotine, deoxycytidine, adenine, adenosine, deoxyadenosine, guanine, guanosine, deoxyguanosine, thymine, 5-methyluridine, thymidine, uracil, uridine, deoxyuridine; 12 to 1,000 ug/ml
Source text: Because FTC is an analog of cytidine, a competitive indirect EIA was used to evaluate the reactivity of 5D2 to naturally occurring structural analogs consisting of nitrogenous nucleic acid bases, ribonucleosides, and deoxyribonucleosides, including cytidine, cysotine, deoxycytidine, adenine, adenosine, deoxyadenosine, guanine, guanosine, deoxyguanosine, thymine, 5-methyluridine, thymidine, uracil, uridine, and deoxyuridine. For the competitive assay, the concentrations of these analogs ranged from 12 to 1,000 ug/ml which is similar to the range of FTC found in urine. Reactivity was not detected to all of these naturally occurring analogs using this EIA.

binding to related compounds (cross-reactivity) [3] | Molecule | concentration found in serum or plasma ([1]; serum or plasma) | concentration excreted unchanged in urine ([1]; urine) | reactivity with FTC (reduction in absorbance versus sample containing no FTC) [2] | reactivity with the carrier proteins [4] | specificity for FTC [5] | reactivity to naturally occurring analogs [6]
 | Nc1nc(=O)n([C@@H]2CS[C@H](CO)O2)cc1F [FTC] | 1 to 300 ng/mL | 1000 to 500000 ng/mL |  |  |  | 
not bind | B1 |  |  | competitively reactive | did not react | specific | not detected

Reference: patent publication US11186651B2, “Monoclonal antibody for the detection of the antiretroviral drug emtricitabine (FTC, 2′,3′-dideoxy-5-fluoro-3′-thiacytidine)” (THE UNITED STATES OF AMERICA, AS REPRESENTED BY THE …, priority 2018, dated 2021)
